Laboratory results reported in publication PMC5626683.

Biological target: GST-MreC from Helicobacter pylori (residues L37-N248), wild type (H. pylori) (UniProt B5Z916)
Experiment: ITC; iTC200, 20 °C; PBP2 (3 μL of 160.4 μM) titrated into the cell with GST-tagged MreC (25 μM)

- Kd: 400 nM
Substance: PBP2 from Helicobacter pylori (residues L38-L588, lacking the TM helix), His6-tagged (domain or fragment)
